For assay [1], the system named is PAO1 cells. Put plainly: Killing assay of GN4-derived peptides in Tris-HCl buffer. The settings on record: FIG. 6; compared with parent GN4 fragment.
In assay [2] the test system is P. aeruginosa strain PAO1. The experiment in a line: Viability (CFU) assay of GN lysins in Tris-HCl buffer. The settings on record: for antibacterial activity compared with HuLYS or novobiocin / antibacterial activity compared with EDTA and PMB: lysin 25 mcg/ml, 1 hour, 37° C., 20 mM Tris-HCl pH 7.2, FIG. 4; for antibacterial activity compared with HuLYS or novobiocin: HuLYZ 25 mcg/ml, novobiocin 5 mcg/ml; for antibacterial activity compared with EDTA and PMB: EDTA 1 mM, PMB 25 mcg/ml.

Assay [3] relates to P. aeruginosa strain PAO1. Format: cell-based, Pseudomonas aeruginosa. The settings on record: E. coli clones of five Micavibrio aeruginosavorus hydrolases screened.

“Also recorded” adds a separate entry of the source.

For the molecule “FGN4-2: FGN4-1 with the 11 C-terminal residues removed, 31 amino acids (NKGDYQGAADQFPRWVNAGGKRLDGLVKRRA; Pseudomonas phage PAJU2)”, in assay [1], the “effect of the sequence modification on activity of the parent fragment” value is “did reduce activity”. As to “FGN4-4: FGN4-1 with a single C-terminal cysteine added (NKGDYQGAADQFPRWVNAGGKRLDGLVKRRAAERALFLEPLSC; artificially-created modified fragment of GN4 (SEQ ID NO 3))”, the “effect of the sequence modification on activity of the parent fragment” value in assay [1] is listed as “enhanced the activity of the FGN4-1”.

B1: GN2: 147 amino acid lysin polypeptide, lysozyme class, from marine metagenome (protein)
chain: MKISLEGLSLIKKFEGCKLEAYKCSAGVWTIGYGHTAGVKEGDVCTQEEAEKLLRGDIFKFEEYVQDSVKVDLDQSQFDALVAWTFNLGPGNLRSSTMLKKLNNGEYESVPFEMRRWNKAGGKTLDGLIRRRQAESLLFESKEWHQV
modifications: hypothetical protein GOS_817346 [marine metagenome] (GenBank EDG23390.1)
B1: the “antibacterial activity compared with HuLYS or novobiocin” value in assay [2] is reported as “greater antibacterial activity”.

B2: GN37: 126 amino acid lysin polypeptide, peptidase M15 from Micavibrio aeruginosavorus (protein, listed as Micavibrio aeruginosavorus)
chain: MTYTLSKRSLDNLKGVHPDLVAVVHRAIQLTPVDFAVIEGLRSVSRQKELVAAGASKTMNSRHLTGHAVDLAAYVNGIRWDWPLYDAIAVAVKAAAKELGVAIVWGGDWTTFKDGPHFELDRSKYR
In the case of B2, in assay [3], the “clearing zone on agar overlay plates” value is on record as “yielded a clearing zone (halo)”. For the same molecule, the “decrease in bacterial viability” value in assay [2] (after only 1 hour of treatment) is listed as > 3 log. In assay [2], the “antibacterial activity compared with EDTA and PMB” value is recorded as “equivalent antibacterial activity; also recorded: stronger or equivalent antibacterial activity”; the “antibacterial activity compared with HuLYS or novobiocin” value is “greater antibacterial activity”.

B3: GN4: 144 amino acid lysin polypeptide, putative endolysin of Pseudomonas phage PAJU2 (protein)
chain: MRTSQRGIDLIKSFEGLRLSAYQDSVGVWTIGYGTTRGVTRYMTITVEQAERMLSNDIQRFEPELDRLAKVPLNQNQWDALMSFVYNLGAANLASSTLLKLLNKGDYQGAADQFPRWVNAGGKRLDGLVKRRAAERALFLEPLS
modifications: Pseudomonas phage PAJU2
Take B3: in assay [2], the “antibacterial activity compared with EDTA and PMB” value is listed as “equivalent antibacterial activity; also recorded: stronger or equivalent antibacterial activity”; the “antibacterial activity compared with HuLYS or novobiocin” value is given as “greater antibacterial activity”.

B4: GN14: 189 amino acid lysin polypeptide, putative endolysin of Pseudomonas phage Lu11 (protein)
chain: MNNELPWVAEARKYIGLREDTSKTSHNPKLLAMLDRMGEFSNESRAWWHDDETPWCGLFVGYCLGVAGRYVVREWYRARAWEAPQLTKLDRPAYGALVTFTRSGGGHVGFIVGKDARGNLMVLGGNQSNAVSIAPFAVSRVTGYFWPSFWRNKTAVKSVPFEERYSLPLLKSNGELSTNEA
modifications: Pseudomonas phage Lu11
For the molecule B4, in assay [2], the “antibacterial activity compared with EDTA and PMB” value is recorded as “equivalent antibacterial activity; also recorded: stronger or equivalent antibacterial activity”; the “antibacterial activity compared with HuLYS or novobiocin” value is given as “greater antibacterial activity”.

B5: GN43: 439 amino acid lysin polypeptide, peptidase M23 of Pseudomonas (protein, listed as Pseudomonas sp.)
chain: MKRTTLNLELESNTDRLLQEKDDLLPQSVTNSSDEGTPFAQVEGASDDNTAEQDSDKPGASVADADTKPVDPEWKTITVASGDTLSTVFTKAGLSTSAMHDMLTSSKDAKRFTHLKVGQEVKLKLDPKGELQALRVKQSELETIGLDKTDKGYSFKREKAQIDLHTAYAHGRITSSLFVAGRNAGLPYNLVTSLSNIFGYDIDFALDLREGDEFDVIYEQHKVNGKQVATGNILAARFVNRGKTYTAVRYTNKQGNTSYYRADGSSMRKAFIRTPVDFARISSRFSLGRRHPILNKIRAHKGVDYAAPIGTPIKATGDGKILEAGRKGGYGNAVVIQHGQRYRTIYGHMSRFAKGIRAGTSVKQGQIIGYVGMTGLATGPHLHYEFQINGRHVDPLSAKLPMADPLGGADRKRFMAQTQPMIARMDQEKKTLLALNKQR
On to B5, for which the “antibacterial activity compared with HuLYS or novobiocin” value in assay [2] was “greater antibacterial activity”.

Values taken from patent US11413334B2, “Lysin polypeptides active against Gram-negative bacteria” (CONTRAFECT CORPORATION, priority 2015, dated 2022).
